Key:
[1] = biological target: T1, HSP70 (human HSP70; the antigen of the binning, humanization and variant binding assays) (human, UniProt P0DMV8 1-641, limits assumed); assay: BLI, anti-human Fc capture, antigen dilution series, 1:1 fit
T1 construct: also called hu HSP70
Method: (§1) Further kinetics assays were conducted for select antibody variants. Assays were performed as follows. Antibody variants were immobilized using anti-human Fc onto the surface of a series of biosensors. Antigen was passed over the surface to generate a binding response. Binding data for the antibody: antigen interactions were collected at 25° C. on the biosensors. A dilution series of the antigen was used in the association step, in order to fit results globally and get the best values for ka, kd, and KD. The response data for the binding of antigen to the surface immobilized antibody were fitted to a 1:1 binding model.

[2] = biological target: T1, HSP70 (human HSP70; the antigen of the …); assay: BLI, anti-human Fc capture, steady state
Method: as §1

[3] = biological target: T1, HSP70 (human HSP70; the antigen of the …); assay: BLI, anti-human Fc capture, antigen 100 nM
Outline: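 Antibody variants captured on anti-human Fc biosensors at […]; antigen at 100 nM flowed over, 25° C. Captured antigen recorded at 610 s (start of dissociation) and 1495 s (end of dissociation), giving % dissociation.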

[4] = biological target: T1, HSP70 (human HSP70; the antigen of the …); assay: BLI, antibody on sensor
Method: Humanized variants were characterized for binding using biolayer interferometry (BLI). Chimeric antibodies including the murine 77A antigen binding region and human Fe regions were also tested. Antibodies and reagents were diluted out onto microwell plates and loaded into the instrument. Diluted antibodies were first immobilized onto dip-and-read sensors, and then measurements for baselines were acquired. Subsequently, the sensors were dipped into wells containing the antigen in solution, or buffer alone. The change in number of molecules bound to the sensor was quantified by measurement of the shift in the interference pattern of light during each step of the protocol. Mathematical modeling was performed based on those values and the concentrations of reagents used in the assay and used to calculate kinetics values.

T1 sequence (P0DMV8 whole entry, change not shown): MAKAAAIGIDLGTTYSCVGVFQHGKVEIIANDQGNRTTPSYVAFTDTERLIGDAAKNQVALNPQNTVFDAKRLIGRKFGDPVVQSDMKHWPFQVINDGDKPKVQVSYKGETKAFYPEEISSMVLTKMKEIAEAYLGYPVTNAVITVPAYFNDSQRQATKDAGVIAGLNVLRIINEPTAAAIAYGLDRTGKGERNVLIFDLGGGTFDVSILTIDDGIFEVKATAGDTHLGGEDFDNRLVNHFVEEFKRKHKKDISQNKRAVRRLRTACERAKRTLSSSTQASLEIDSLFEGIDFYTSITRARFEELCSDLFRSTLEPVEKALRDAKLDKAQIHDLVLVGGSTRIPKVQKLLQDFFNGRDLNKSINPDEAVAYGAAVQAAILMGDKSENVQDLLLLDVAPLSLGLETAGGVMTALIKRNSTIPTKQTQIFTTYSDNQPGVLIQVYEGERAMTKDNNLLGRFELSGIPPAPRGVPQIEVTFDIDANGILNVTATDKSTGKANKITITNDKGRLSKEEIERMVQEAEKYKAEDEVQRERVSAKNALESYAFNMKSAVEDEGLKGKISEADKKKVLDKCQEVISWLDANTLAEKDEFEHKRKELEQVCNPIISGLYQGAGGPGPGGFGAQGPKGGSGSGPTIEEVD

| Binder | Kd [1] | koff [1] | kon [1] | KD Steady State [2] | % Diss [3] | Kd [4] | koff [4] | kon [4] |
| --- | --- | --- | --- | --- | --- | --- | --- | --- |
| h77A-1 (antibody, V domains shown, also called hVH-1 + hVL-1) VH: QIQLVQSGAEVKKPGASVKVSCKASGYTFTNYGMNWVRQAPGQGLEWMGWINTYTGEPTYADDFKGRFTFTTDTSTSTAYMELRSLRSDDTAVYFCARYDHAMDYWGQGTLVTVSS VL: EIVLTQSPDSLAVSLGERATINCKSSQSLLNSGTRKNYLAWYQQKAGQSPKLLIYWTSTRESGVPDRFSGSGSGTDFTLTIDSLQAEDVAVYYCKQSYTLYTFGGGTKVEIK | 2.39 nM | 0.000131 s⁻¹ | 54700 M⁻¹ s⁻¹ | 1.2 nM | 7.63% | 2.61 nM | 0.000173 s⁻¹ | 66200 M⁻¹ s⁻¹ |
| h77A-1.71 (antibody, V domains shown, captured by anti-human Fc) VH: QIQLVQSGSEVKKPGASVKVSCKASGYTFTNYGMNWVRQAPGQGLEWMGWINTYTGEPTYADDFKGRFTFTTDTSTSTAYMDLRSLRSDDTAVYFCARYDHAMDYWGQGTLVTVSS VL: EIVLTQSPDSLSVSLGERATIKCKSSQSLLNSGTRKNYLAWYQQKAGQSPKLLIYWTSTRESGVPDRFSGSGSGTDFTLTIDSLQTEDVAVYYCKQSYTLYTFGGGTKVEIK | 2.51 nM | 0.000123 s⁻¹ | 49000 M⁻¹ s⁻¹ | 1.3 nM | 7.93% |  |  |  |
| h77A-1.75 (antibody, V domains shown, captured by anti-human Fc) VH: QIQLVQSGVEVKKPGASVKVSCKASGYTFTNYGMNWVRQAPGQGLEWMGWINTYTGEPTYSDDFKGRFTFTTDTSTSTAYMEVRSLRSDDTAVYFCARYDHAMDYWGQGTLVTVSS VL: EIVLTQSPDSLAVSLGERATINCKSSQSLFNSGTRKNYLAWYQQKAGQSPKLLIYWTSTRESGVPDRFSGSGSGTDFTLSIDSLQAEDVAVYYCKQSYTLYTFGGGTKVEIK | 0.28 nM | 2.43e-05 s⁻¹ | 88100 M⁻¹ s⁻¹ | 0.023 nM | 5.34% |  |  |  |
| h77A-1.46 (antibody, V domains shown, captured by anti-human Fc) VH: QIQLVQSGVEVKKPGASVKVSCKASGYTFTNYGMNWVRQAPGQGLEWMGWINTYTGEPTYADDFKGRFTFTTDTSTSTAYMELRSLRSDDTAVYFCARYDHAMDYWGQGTLVTVSS VL: EIVLTQSPDSLAVSLGERATIKCKSSQSLLNSGTRKNYLAWYQKKAGQSPKLLIYWTSTRESGVPDRFSGSGSGTDFTLTIDSLQAEDVAVYYCKQSYTLYTFGGGTKVEIK | 2.24 nM | 0.000123 s⁻¹ | 54800 M⁻¹ s⁻¹ | 1.2 nM | 6.22% |  |  |  |
| h77A-1.30 (antibody, V domains shown, captured by anti-human Fc) VH: QIQLVQSGAEVKKPGASVKVSCKASGYTFTNYGMNWVRQAPGQGLEWMGWINTYTGEPTYADDFKGRFTFTTDTSTSTAYMEVRSLRSDDTAVYFCARYDHAMDYWGQGTLVTVSS VL: EIVLTQSPDSLAVSLGERATINCKSSQSLLNSGTRKNYLAWYQQKAGQSPKLIIYWTSTRESGVPDRFSGSGSGTDFTLTIDSLQAEDVAVYYCKQSYTLYTFGGGTKVEIK | 1.93 nM | 0.000109 s⁻¹ | 56700 M⁻¹ s⁻¹ | 0.86 nM | 5.1% |  |  |  |
| h77A-1.59 (antibody, V domains shown, captured by anti-human Fc) VH: QIQLVQSGPEVKKPGASVKVSCKASGYTFTNYGMNWVRQAPGQGLEWMGWINTYTGEPTYGDDFKGRFTFTTDTSTSTAYMELRSLRSDDTAVYFCGRYDHAMDYWGQGTLVTVSS VL: EIVLTQSPDSLAVSLGERATINCKSSQSLLNSGTRKNYLAWYQQKAGQSPKLLIYWTSTRESGVPDRFSGSGSGTDFTLTIDRLQAEDVAVYYCKQSYTLYTFGGGTKVEIK | 2.93 nM | 0.00012 s⁻¹ | 40800 M⁻¹ s⁻¹ | 0.74 nM | 9.8% |  |  |  |
| h77A-1.94 (antibody, V domains shown, captured by anti-human Fc) VH: QIQLVQSGAEVKKPGASVKVSCKASGYTFTNYGMNWVRQAPGQGLEWMGWINTYTGEPTYTDDFKGRFTFTTDTSTSTAYMELRSLRSDDTAVYFCARYDHAMDYWGQGTLVTVSS VL: EIVLTQSPDSLAVSLGERATINCKSSQSLFNSGTRKNYLAWYQQKAGQSPKLIIYWTSTRESGVPDRFSASGSGTDFTLSIDRLQAEDVAVYYCKQSYTLYTFGGGTKVEIK | 1.85 nM | 0.000111 s⁻¹ | 59900 M⁻¹ s⁻¹ | 1.3 nM | 5.24% |  |  |  |
| h77A-1.61 (antibody, V domains shown, captured by anti-human Fc) VH: QIQLVQSGAEVKKPGASVKVSCKASGYTFTNYGMNWVRQAPGQGLEWMGWINTYTGEPTYADDFKGRFTFTTDTSTSTAYMELRSLRSDDTAVYFCARYDHAMDYWGQGSLVTVSS VL: EIVLTQSPDSLAVSLGERATINCKSSQSLLNSGTRKNYLAWYQKKSGQSPKLLIYWTSTRESGVPDRFSGSGSGTDFTLSIDSLQAEDVAVYYCKQSYTLYTFGGGTKVEIK | 2.91 nM | 0.000123 s⁻¹ | 42100 M⁻¹ s⁻¹ | 2.1 nM | 6.66% |  |  |  |
| h77A-1.19 (antibody, V domains shown, captured by anti-human Fc) VH: QIQLVQSGAEVKKPGASVKVSCKASGYTFTNYGMNWVRQAPGQGLEWMGWINTYTGEPTYVDDFKGRFTFTTDTSTSTAYMDLRSLRSDDTAVYFCARYDHAMDYWGQGTLVTVSS VL: EIVLTQSPDSLAVSLGERATINCKSSQSLLNSGTRKNYLAWYQQKAGQSPKLLIYWTSTRESGVPDRFSGSGSGTDFTLTIDSLQAEDVAVYYCKQSYTLYTFGGGTKVEIK | 1.26 nM | 0.000111 s⁻¹ | 88500 M⁻¹ s⁻¹ | 1.2 nM | 8.73% |  |  |  |
| h77A-1.74 (antibody, V domains shown, captured by anti-human Fc) VH: QIQLVQSGPEVKKPGASVKVSCKASGYTFTNYGMNWVRQAPGQGLEWMGWINTYTGEPTYADDFKGRFTFTTDTSTTTGYMELRSLRSDDTAVYFCARYDHAMDYWGQGTLVTVSS VL: EIVLTQSPDSLAVSLGERATIKCKSSQSLLNSGTRKNYLAWYQQKAGQSPKLLIYWTSTRESGVPDRFSGSGSGTDFTLTIDSLQAEDVAIYYCKQSYTLYTFGGGTKVEIK | 1.61 nM | 0.000125 s⁻¹ | 77800 M⁻¹ s⁻¹ | 1.7 nM | 9.07% |  |  |  |
| h77A-1.27 (antibody, V domains shown, captured by anti-human Fc) VH: QIQLVQSGAEVKKPGASVKVSCKASGYTFTNYGMNWVRQAPGQGLEWMGWINTYTGEPTYTDDFKGRFTFTTDTSTSTAYMELRSLRSDDTAVYFCARYDHAMDYWGQGTLVTVSS VL: EIVLTQSPDSLTVSLGERATINCKSSQSLLNSGTRKNYLAWYQQKAGQSPKLLIYWTSTRESGVPDRFSGSGSGTDFTLTIDSLQAEDVAVYYCKQSYTLYTFGGGTKVEIK | 1.41 nM | 0.000108 s⁻¹ | 76400 M⁻¹ s⁻¹ | 0.89 nM | 6.74% |  |  |  |
| h77A-1.22 (antibody, V domains shown, captured by anti-human Fc) VH: QIQLVQSGAEVKKPGASVKVSCKASGYTFTNYGMNWVRQAPGQGLEWMGWINTYTGEPTYSDDFKGRFTFTTDTSTSTAYMELRSLRSDDTAVYFCARYDHAMDYWGQGTLVTVSS VL: EIVLTQSPDSLAVSLGERATINCKSSQSLFNSGTRKNYLAWYQQKAGQSPKLLIYWTSTRESGVPDRFSGSGSGTDFTLTIDSLQAEDVAVYYCKQSYTLYTFGGGTKVEIK | 1.14 nM | 7.64e-05 s⁻¹ | 66900 M⁻¹ s⁻¹ | 0.81 nM | 6.5% |  |  |  |
